Read-outs that look alike come from different tables or passages of the source.
What was measured:
[1] = In vivo biodistribution of ^203Pb-labeled peptides; set-up: species or system mice; settings: female, athymic nu/nu, mouse, 37 kBq, total radioactivity; for tissue uptake at 1 h / tissue uptake at 3 h / tissue uptake at 24 h: intravenous; for tissue uptake at 1 h / tissue to tissue ratio at 1 h: 1 h post-administration; for tissue uptake at 3 h / tissue to tissue ratio at 3 h: 3 h post-administration; for tissue uptake at 24 h / tissue to tissue ratio at 24 h: 24 h post-administration; for tissue to tissue ratio at 1 h / tissue to tissue ratio at 3 h / tissue to tissue ratio at 24 h: iv
Method: AR42J cells (5.0 × 10^6 cells/animal) were implanted subcutaneously on the left shoulder of female athymic nu/nu mice. […] Extra groups of mice were co-administered 37 kBq of ^203Pb-PSC-PEG2-TOC with DL-lysine (400 mg/kg) to determine the effect of amino acid on renal uptake of the radiopharmaceutical. Mice (n=3 per time point) were euthanized at 1, 3, and 24 h post-administration, and tumors and organs/tissues of interest were excised and weighed. The radioactivities of the samples were measured using the gamma counter.

AR42J cells = assay: Cellular uptake of ^203Pb-labeled peptides; assay type: cell-based, rat; settings: 2 h post-incubation
Method: PSCTOC and PSC-PEG2-TOC were labeled with ^203Pb and purified via HPLC for high molar activities as descibed in the Supplementary Material and in Li and collaborators. The HPLC-purified ^203Pb-labeled peptides (3.4 kBq) were incubated with AR42J cells in 24-well plates (pre-coated with poly-D-lysine), which were plated at a density of 2.0 × 10^5 cells 2 days prior, in the binding medium at 37 °C for up to 120 min. The cells were then washed twice and lysed, and the radioactivities of the samples were determined (n=3).

[2] = large intestine, read-out: Large intestine
[3] = small intestine, read-out: Small intestine
[4] = tumor/blood, read-out: Tumor/blood ratio
[5] = tumor/kidneys, read-out: Tumor/kidneys ratio
[6] = tumor/liver, read-out: Tumor/liver ratio
[7] = tumor/lung, read-out: Tumor/lung ratio
[8] = tumor/muscle, read-out: Tumor/muscle ratio

## C[C@@H](O)[C@@H]1NC(=O)[C@H](CCCCN)NC(=O)[C@@H](Cc2c[nH]c3ccccc23)NC(=O)[C@H](Cc2ccc(O)cc2)NC(=O)[C@@H](NC(=O)[C@@H](Cc2ccccc2)NC(=O)CN2CCN(CC(=O)O)CCN(CC(N)=O)CCN(CC(=O)O)CC2)CSSC[C@@H](C(=O)N[C@H](CO)[C@@H](C)O)NC1=O [[^203Pb]Pb-PSCTOC, metal not drawn]
[1]; blood, read-out: Blood
  tissue uptake at 1 h: 0.53 ± 0.06 %ID/g
  tissue uptake at 3 h: 0.03 ± 0.01 %ID/g
  tissue uptake at 24 h: 0.01 %ID/g
[1]; brain, read-out: Brain
  tissue uptake at 1 h: 0.16 ± 0.16 %ID/g
  tissue uptake at 3 h: 0.01 %ID/g
  tissue uptake at 24 h: 0.02 %ID/g
[1]; heart, read-out: Heart
  tissue uptake at 1 h: 0.32 ± 0.02 %ID/g
  tissue uptake at 3 h: 0.07 %ID/g
  tissue uptake at 24 h: 0.05 ± 0.01 %ID/g
[1]; kidneys, read-out: Kidneys
  tissue uptake at 1 h: 13.6 ± 0.75 %ID/g
  tissue uptake at 3 h: 8.35 ± 1.33 %ID/g
  tissue uptake at 24 h: 5.59 ± 1.3 %ID/g
[1]; [2]
  tissue uptake at 1 h: 0.77 ± 0.04 %ID/g
  tissue uptake at 3 h: 3.1 ± 0.12 %ID/g
  tissue uptake at 24 h: 0.45 ± 0.03 %ID/g
[1]; liver, read-out: Liver
  tissue uptake at 1 h: 0.44 ± 0.02 %ID/g
  tissue uptake at 3 h: 0.19 ± 0.03 %ID/g
  tissue uptake at 24 h: 0.14 %ID/g
[1]; lung, read-out: Lung
  tissue uptake at 1 h: 5.06 ± 0.74 %ID/g
  tissue uptake at 3 h: 1.09 ± 0.36 %ID/g
  tissue uptake at 24 h: 1.39 ± 0.27 %ID/g
[1]; muscle, read-out: Muscle
  tissue uptake at 1 h: 0.25 ± 0.06 %ID/g
  tissue uptake at 3 h: 0.05 ± 0.03 %ID/g
  tissue uptake at 24 h: 0.03 ± 0.01 %ID/g
[1]; [3]
  tissue uptake at 1 h: 1.38 ± 0.07 %ID/g
  tissue uptake at 3 h: 2.85 ± 2.25 %ID/g
  tissue uptake at 24 h: 0.12 ± 0.01 %ID/g
[1]; spleen, read-out: Spleen
  tissue uptake at 1 h: 0.7 ± 0.13 %ID/g
  tissue uptake at 3 h: 0.35 ± 0.12 %ID/g
  tissue uptake at 24 h: 0.24 ± 0.03 %ID/g
[1]; tumor, read-out: Tumor
  tissue uptake at 1 h: 19.1 ± 3.31 %ID/g
  tissue uptake at 3 h: 16.2 ± 1.76 %ID/g
  tissue uptake at 24 h: 8.65 ± 0.7 %ID/g
[1]; [4]
  tissue to tissue ratio at 1 h: 36.1
  tissue to tissue ratio at 3 h: 540
  tissue to tissue ratio at 24 h: 865
[1]; [5]
  tissue to tissue ratio at 1 h: 1.41
  tissue to tissue ratio at 3 h: 1.94
  tissue to tissue ratio at 24 h: 1.55
[1]; [6]
  tissue to tissue ratio at 1 h: 43.5
  tissue to tissue ratio at 3 h: 85.3
  tissue to tissue ratio at 24 h: 61.8
[1]; [7]
  tissue to tissue ratio at 1 h: 3.78
  tissue to tissue ratio at 3 h: 14.9
  tissue to tissue ratio at 24 h: 6.22
[1]; [8]
  tissue to tissue ratio at 1 h: 76.6
  tissue to tissue ratio at 3 h: 324
  tissue to tissue ratio at 24 h: 288
AR42J cells
  Cellular uptake, fold vs. [^203Pb]Pb-DOTATOC: 6 fold
AR42J cells; 37 °C
  Cellular uptake: 5%

— paper PMC10881741, “Structural modifications toward improved lead-203/lead-212 peptide-based image-guided alpha-particle radiopharmaceutical therapies for neuroendocrine tumors” (European Journal of Nuclear Medicine and Molecular Imaging, 2023)
